Data as given in patent US20210061908A1 (IOMX THERAPEUTICS, published 2021).
Residue numbers refer to the chain shown, from its start.

T1: human IGSF11 (VSIG3) expressed on the surface of cells (human, UniProt Q5DX21 23-431)
T1 construct: one molecule for all cell lines; the cell line is named under assay; also called IGSF11-expressing cells; HEK-OE
T1 sequence: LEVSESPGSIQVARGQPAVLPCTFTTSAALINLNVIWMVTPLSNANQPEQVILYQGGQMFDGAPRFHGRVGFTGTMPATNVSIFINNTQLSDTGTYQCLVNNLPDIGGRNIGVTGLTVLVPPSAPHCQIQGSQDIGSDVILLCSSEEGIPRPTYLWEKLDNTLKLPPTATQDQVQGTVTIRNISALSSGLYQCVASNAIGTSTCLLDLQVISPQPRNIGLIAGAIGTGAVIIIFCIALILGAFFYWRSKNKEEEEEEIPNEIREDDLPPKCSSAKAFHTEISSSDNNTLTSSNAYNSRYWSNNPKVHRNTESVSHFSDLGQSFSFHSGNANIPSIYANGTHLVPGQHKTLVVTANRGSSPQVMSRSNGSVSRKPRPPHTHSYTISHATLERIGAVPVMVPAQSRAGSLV

T2: extracellular domain (ECD) of human IGSF11 (VSIG3), HIS-tagged (human, UniProt Q5DX21 23-241, biotinylated in the ELISA of Example 4 (site not stated))
T2 construct: also called HIS-IGSF11; IGSF11-HIS; not shown: HIS6 tag
T2 sequence: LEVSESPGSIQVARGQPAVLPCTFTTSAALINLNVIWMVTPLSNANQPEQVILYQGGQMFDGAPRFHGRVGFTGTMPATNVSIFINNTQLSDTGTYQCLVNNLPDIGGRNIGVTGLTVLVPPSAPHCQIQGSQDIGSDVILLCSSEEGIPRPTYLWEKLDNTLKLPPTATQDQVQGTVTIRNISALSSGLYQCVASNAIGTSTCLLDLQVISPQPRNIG

T3: IGSF11 (VSIG3), construct used in SPR and BLI not stated (UniProt Q5DX21 23-241, limits assumed)
T3 sequence (looked up): T2 sequence

B1: A-013 (human IgG1 format) (antibody, V domains shown)
VH: EVQLVESGGGLIQPGGSLRLSCAASGFTVSSNYMSWVRQAPGKGLEWVSVIYSGGSTYYADSVKGRFTISRDNSKNTLYLQMNSLRAEDTAVYYCARGNPYYYGDLQVNFDYWGQGTLVTVSS
VL: QAVVTQEPSLTVSPGGTVTLTCASSTGAVTSAYYPNWFQQKPGQAPRALIYSTSNKHSWTPARFSGSLLGGKAALTLSGVQPEDEADYYCLLYYGGAWVFGGGTKLTVL
notes: human IgG1 format
B2: A-007 (human IgG1 format) (antibody, V domains shown)
VH: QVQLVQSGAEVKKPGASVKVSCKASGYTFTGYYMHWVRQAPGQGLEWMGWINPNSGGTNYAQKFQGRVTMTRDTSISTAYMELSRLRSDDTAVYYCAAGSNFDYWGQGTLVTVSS
VL: QSALTQPASVSGSPGQSITIACTGSSSDIGSFSYVSWYQQRPGKAPTLIIYGVNNRPLGVSRRFSGSKSGNTASLSISGLQAEDEADYYCSSYTRRSTVIFGGGTKLTVL
notes: human IgG1 format
B3: A-026 (human IgG1 format) (antibody, V domains shown)
VH: QVQLQESGPGLVKPSQTLSLTCTVSGGSISSGGYYWSWIRQHPGKGLEWIGYIYYSGSTYYNPSLKSRVTISVDTSKNQFSLKLSSVTAADTAVYYCASWSLGTSNHGWFDPWGQGTLVTVSS
VL: QSVLTQPPSASGTPGQRVTISCSGSSSNIGSNTVNWYQQLPGTAPKLLISDNNNRPSGVPDRFSGSKSGTSASLAITGLQAEDEADYYCQSYDSNLSGWVFGGGTKLTVL
notes: human IgG1 format
B4: A-022 (human IgG1 format) (antibody, V domains shown)
VH: EVQLLESGPGLVKPSQTLSLTCTVSGGSISSGGYYWSWIRQHPGKGLEWIGYIYYSGSTYYNPSLKSRVTISVDTSKNQFSLKLSSVTAADTAVYYCARASRSTDYYFDYWGQGTLVTVSS
VL: QPGLTQPPSMSYGLGQTATLTCTGNRNNIGDQGAAWLQQHQGHPPKLLSYRNNNGPSGISERLSASRSGNTASLTISGLQPEDEADYYCSAWDSSLRAWVFGGGTKLTVL
notes: human IgG1 format
B5: A-011 (human IgG1 format) (antibody, V domains shown)
VH: QVQLVESGGGVVQPGRSLRLSCAASGFTFSSYAMHWVRQAPGKGLEWVAVISYDGSNKYYADSVKGRFTISRDNSKNTLYLQMNSLRAEDTAVYYCAEGGALNYYGMDVWGQGTTVTVSS
VL: SSELTQDPGVSVALGQTVRITCQGDSLRHFYATWYQQKPGQAPILVIYGKNNRPSGIPDRFSGSSSEDTASLTITGAQAEDEADYYCQSRDPRNNHLIFGGGTKLIVL
notes: human IgG1 format
B6: A-015 (human IgG1 format) (antibody, V domains shown)
VH: not shown
VL: QPVLTQSPSASASLGASVKLTCTLSSGHTNYAIAWRQQQPGKAPRYLMLLNSDGSHTRGGGIPDRFSGSSSGAERYLTISSLQSEDEADYYCMIWHNNAWVFGGGTKLAVL
notes: human IgG1 format
B7: A-024 (human IgG1 format) (antibody, V domains shown)
VH: QMQLVQSGAEVKKPGSSVKVSCKASGGTFSSYAISWVRQAPGQGLEWMGWISAYNGNTNYAQKLQGRVTMTTDTSTSTAYMELRSLRSDDTAVYYCASLGSYGYTGAFDIWGQGTMATVSS
VL: QSALTQPASVSGSPGQSITISCTGTSSDVGGYNYVSWYQQHPGKAPKLMIYEVSNRPSGVSNRFSGSKSGNTASLTISGLQAEDEADYYCSSYTSSSTLVVFGGGTKLTVL
B8: B-007 (chain-swapped, human IgG1 format) (antibody, V domains shown)
VH: B1 VH
VL: B1 VL
notes: VH of A-006 with VL of A-013; IgG1 format; also called B7; Chains-B-007
B9: B-008 (chain-swapped, human IgG1 format) (antibody, V domains shown)
VH: B1 VH
VL: B1 VL with L20P, A23G, A32G, Y33N, Y34L, F64I, D87E
notes: VH of A-006 with VL of A-002; IgG1 format; also called B8; Chains-B-008
B10: A-004 (human IgG1 format) (antibody, V domains shown)
VH: EVQLVESGGGLVKPGGSLRLSCAASGFTFSSYSMNWVRQAPGKGLEWVSSISSSSSYIYYADSVKGRFTISRDNAKNSLYLQMNSLRAEDTAVYYCARGQLLWFGESALIDAFDIWGQGTMVTVSS
VL: EIVLTQSPSSLSASVGDRVTITCRASQSISSYLNWYQLKPGKAPKLLIYAASILQSGVPSRFSGSGSGTDFTLTISSLQPEDFAAYYCQQSYSTPRTFGQGTKLEIK
notes: human IgG1 format
B11: A-034 (human IgG1 format) (antibody, V domains shown)
VH: QMQLVQSGGGLVKPGGSLRLSCAASGFTFSSYTMNWVRQAPGKGLEWVSSISSIGTYIYYADSVKGRFTISRDNAKNSLYLQMNSLRAEDTAVYYCARVLLSGSYYGYFDSWGQGTLVTVSS
VL: QSVLTQPPSVSGAPGQRVTISCTGSSSNIGAGYDVHWYQQLPGTAPKLFIYGNSNRPSGVPDRFSGSKSGTSASLAITGLQAEDEADYYCQSYDSSLSGYVFGTGTKVTVL
notes: human IgG1 format
B12: B-003 (chain-swapped, human IgG1 format) (antibody, V domains shown)
VH: B1 VH with V5L, A24V
VL: B1 VL with G16E, A32G, K41R, H57D, D87E
notes: VH of A-012 with VL of A-005; IgG1 format; also called B3; Chains-B-003
B13: B-005 (chain-swapped, human IgG1 format) (antibody, V domains shown)
VH: B1 VH with V5L, A24V
VL: B1 VL with L20P, A23G, A32G, Y33N, Y34L, F64I, D87E
notes: VH of A-012 with VL of A-002; IgG1 format; also called B5; Chains-B-005

molecular target: T1, human IGSF11 (VSIG3) expressed on the …; assay: FACS, IgG1 format, recombinant HEK cells expressing IGSF11 (HEK-OE)

Binder	EC50 [nM]
B1	10 to 50
B2	> 10
B3	> 50
B4	10 to 50
B5	> 50

molecular target: CL-11 (C); assay: FACS on CL-11 cells (do not express IGSF11; negative cell line) treated with scrambled control siRNA (SC)

Binder	percentage binding [%]
B2	8.88
B3	3.6
B6	1.95
B5	2.87

molecular target: T1, human IGSF11 (VSIG3) expressed on the …; assay: FACS, IgG1 format, DMS 273 cells

Binder	EC50 [nM]
B1	> 50
B7	< 10
B2	> 10
B4	10 to 50

molecular target: T1, human IGSF11 (VSIG3) expressed on the …; assay: FACS on M579-A2-luc cells treated with scrambled control siRNA (SC)

Binder	percentage binding [%]
B2	65.6
B3	11.6
B6	1.17
B5	2.05

molecular target: T2, extracellular domain (ECD) of human …; assay: blocking ELISA (Example 5): IgG titrated and pre-incubated with 200 nM his-tagged IGSF11 ECD, complexes added to immobilised VSIR-Fc, bound IGSF11 detected with anti-hexahistidine-HRP; blocked ligand: VSIR-Fc

Binder	IC50 (read off the curve) [nM]
B8	~3
B9	~4

molecular target: T3, IGSF11 (VSIG3), construct used in SPR …; assay: SPR (Biacore), IgG1 format; IGSF11 construct not stated

Binder	Kd [nM]
B1	100 to 250
B7	> 500
B10	100 to 250
B11	250 to 500
B5	250 to 500

molecular target: T3, IGSF11 (VSIG3), construct used in SPR …; assay: BLI (Octet), IgG1 format; IGSF11 construct not stated

Binder	Kd [nM]
B5	10 to 20

molecular target: T1, human IGSF11 (VSIG3) expressed on the …; assay: FACS on M579-A2-luc cells treated with IGSF11 siRNA (KD: target knocked down, specificity control)

Binder	percentage binding [%]
B2	9.15
B3	2.01
B6	1.3
B5	2.41

molecular target: CL-11 (C); assay: FACS on CL-11 cells (do not express IGSF11; negative cell line) treated with IGSF11 siRNA (KD)

Binder	percentage binding [%]
B2	13.2
B3	3.47
B6	2.91
B5	4.86

molecular target: T1, human IGSF11 (VSIG3) expressed on the …; assay: FACS on DMS 273 cells treated with IGSF11 siRNA (KD: target knocked down, specificity control)

Binder	percentage binding [%]
B2	34.2
B3	3.81
B6	1.6
B5	3.4

molecular target: T2, extracellular domain (ECD) of human …; assay: ELISA: IGSF11-HIS coated, IgG1 antibody titrated, anti-human antibody-HRP and TMB; X-axis nM and Y-axis absorbance per legend paragraph 30

Binder	EC50 (read off the curve) [nM]
B12	~0.009
B13	~0.01

molecular target: T2, extracellular domain (ECD) of human …; assay: ELISA, coated IGSF11-HIS, IgG1 format; EC50 grade (* >1 nM, ** 0.05-1 nM, *** 0.02-0.05 nM, **** <0.02 nM)

Binder	EC50 [nM]
B1	< 0.02
B7	0.02 to 0.05
B2	< 0.02
B4	< 0.02
B10	< 0.02
B11	0.05 to 1
B5	< 0.02

molecular target: T2, extracellular domain (ECD) of human …; assay: blocking ELISA (Example 5): IgG titrated and pre-incubated with 200 nM his-tagged IGSF11 ECD, complexes added to immobilised VSIR-Fc, bound IGSF11 detected with anti-hexahistidine-HRP; blocked ligand: VSIR-Fc; remark: another data set of the same source

Binder	IC50 (read off the curve) [nM]
B12	~2
B13	~2

molecular target: T1, human IGSF11 (VSIG3) expressed on the …; assay: FACS on DMS 273 cells treated with scrambled control siRNA (SC)

Binder	percentage binding [%]
B2	82.3
B3	64.4
B6	5.97
B5	6.95
